Assay results as given in IntAct's records for PubMed 21621563.

B1: Forkhead box protein O3 (Homo sapiens), O43524 (parent)
chain: MAEAPASPAPLSPLEVELDPEFEPQSRPRSCTWPLQRPELQASPAKPSGETAADSMIPEEEDDEDDEDGGGRAGSAMAIGGGGGSGTLGSGLLLEDSARVLAPGGQDPGSGPATAAGGLSGGTQALLQPQQPLPPPQPGAAGGSGQPRKCSSRRNAWGNLSYADLITRAIESSPDKRLTLSQIYEWMVRCVPYFKDKGDSNSSAGWKNSIRHNLSLHSRFMRVQNEGTGKSSWWIINPDGGKSGKAPRRRAVSMDNSNKYTKSRGRAAKKKAALQTAPESADDSPSQLSKWPGSPTSRSSDELDAWTDFRSRTNSNASTVSGRLSPIMASTELDEVQDDDAPLSPMLYSSSASLSPSVSKPCTVELPRLTDMAGTMNLNDGLTENLMDDLLDNITLPPSQPSPTGGLMQRSSSFPYTTKGSGLGSPTSSFNSTVFGPSSLNSLRQSPMQTIQENKPATFSSMSHYGNQTLQDLLTSDSLSHSDVMMTQSDPLMSQASTAVSAQNSRRNVMLRNDPMMSFAAQPNQGSLVNQNLLHHQHQTQGALGGSRALSNSVSNMGLSESSSLGSAKHQQQSPVSQSMQTLSDSLSGSSLYSTSANLPVMGHEKFPSDLDLDMFNGSLECDMESIIRSELMDADGLDFNFDSLISTQNVVGLNVGNFTGAKQASSQSWVPG

What was measured:
[1] = variants of: B1; details: with 1433z_mouse Ywhaz
akt1_human AKT1, P31749 = variants of: B1; details: with akt1_human AKT1, P31749
Chain of akt1_human AKT1, P31749 (P31749 whole entry): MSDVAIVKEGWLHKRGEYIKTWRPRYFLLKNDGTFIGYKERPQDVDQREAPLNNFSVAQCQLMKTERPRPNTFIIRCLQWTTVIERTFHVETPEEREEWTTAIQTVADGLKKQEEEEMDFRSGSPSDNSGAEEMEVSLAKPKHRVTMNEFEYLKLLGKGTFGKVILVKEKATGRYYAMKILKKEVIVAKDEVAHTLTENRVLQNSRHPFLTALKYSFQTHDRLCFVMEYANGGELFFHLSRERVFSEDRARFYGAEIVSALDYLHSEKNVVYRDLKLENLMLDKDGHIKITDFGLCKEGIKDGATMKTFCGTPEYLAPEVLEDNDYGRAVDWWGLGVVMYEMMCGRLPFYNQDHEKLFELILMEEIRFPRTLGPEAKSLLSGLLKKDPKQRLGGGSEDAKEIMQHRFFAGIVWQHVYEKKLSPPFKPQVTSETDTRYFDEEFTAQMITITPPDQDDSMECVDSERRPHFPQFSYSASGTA

| effect of a mutation on the interaction [1] | effect of a mutation on the interaction (akt1_human AKT1, P31749) | Variant |
| --- | --- | --- |
| decreasing interaction strength | with no effect | P34A |
| disrupting interaction strength | decreasing interaction strength | R27L;R29L;R248L;R250L |
| disrupting interaction strength | with no effect | R27L;R29L |
| disrupting interaction strength | decreasing interaction strength | R27L;R29L;R248L;R250L;R310L;R312L |
| disrupting interaction strength | decreasing interaction strength | T32A;S253A;S315A |
